B1: SIDT1: SIDT1ECD mutant (all N to Q) (protein)
parent chain: MRGCLRLALLCALPWLLLAASPGHPAKSPRQPPAPRRDPFDAARGADFDHVYSGVVNLSTENIYSFNYTSQPDQVTAVRVYVNSSSENLNYPVLVVVRQQKEVLSWQVPLLFQGLYQRSYNYQEVSRTLCPSEATNETGPLQQLIFVDVASMAPLGAQYKLLVTKLKHFQLRTNVAFHFTASPSQPQYFLYKFPKDVDSVIIKVVSEMAYPCSVVSVQNIMCPVYDLDHNVEFNGVYQSMTKKAAITLQKKDFPGEQFFVVFVIKPEDYACGGSFFIQEKENQTWNLQRKKNLEVTIVPSIKESVYVKSSLFSVFIFLSFYLGCLLVGFVHYLRFQRKSIDGSFGSNDGSGNMVASHPIAASTPEGSNYGTIDESSSSPGRQMSSSDGGPPGQSDTDSSVEESDFDTMPDIESDKNIIRTKMFLYLSDLSRKDRRIVSKKYKIYFWNIITIAVFYALPVIQLVITYQTVVNVTGNQDICYYNFLCAHPLGVLSAFNNILSNLGHVLLGFLFLLIVLRRDILHRRALEAKDIFAVEYGIPKHFGLFYAMGIALMMEGVLSACYHVCPNYSNFQFDTSFMYMIAGLCMLKLYQTRHPDINASAYSAYASFAVVIMVTVLGVVFGKNDVWFWVIFSAIHVLASLALSTQIYYMGRFKIDLGIFRRAAMVFYTDCIQQCSRPLYMDRMVLLVVGNLVNWSFALFGLIYRPRDFASYMLGIFICNLLLYLAFYIIMKLRSSEKVLPVPLFCIVATAVMWAAALYFFFQNLSSWEGTPAESREKNRECILLDFFDDHDIWHFLSATALFFSFLVLLTLDDDLDVVRRDQIPVF
B2: SIDT1: N57Q (protein)
parent chain: MRGCLRLALLCALPWLLLAASPGHPAKSPRQPPAPRRDPFDAARGADFDHVYSGVVNLSTENIYSFNYTSQPDQVTAVRVYVNSSSENLNYPVLVVVRQQKEVLSWQVPLLFQGLYQRSYNYQEVSRTLCPSEATNETGPLQQLIFVDVASMAPLGAQYKLLVTKLKHFQLRTNVAFHFTASPSQPQYFLYKFPKDVDSVIIKVVSEMAYPCSVVSVQNIMCPVYDLDHNVEFNGVYQSMTKKAAITLQKKDFPGEQFFVVFVIKPEDYACGGSFFIQEKENQTWNLQRKKNLEVTIVPSIKESVYVKSSLFSVFIFLSFYLGCLLVGFVHYLRFQRKSIDGSFGSNDGSGNMVASHPIAASTPEGSNYGTIDESSSSPGRQMSSSDGGPPGQSDTDSSVEESDFDTMPDIESDKNIIRTKMFLYLSDLSRKDRRIVSKKYKIYFWNIITIAVFYALPVIQLVITYQTVVNVTGNQDICYYNFLCAHPLGVLSAFNNILSNLGHVLLGFLFLLIVLRRDILHRRALEAKDIFAVEYGIPKHFGLFYAMGIALMMEGVLSACYHVCPNYSNFQFDTSFMYMIAGLCMLKLYQTRHPDINASAYSAYASFAVVIMVTVLGVVFGKNDVWFWVIFSAIHVLASLALSTQIYYMGRFKIDLGIFRRAAMVFYTDCIQQCSRPLYMDRMVLLVVGNLVNWSFALFGLIYRPRDFASYMLGIFICNLLLYLAFYIIMKLRSSEKVLPVPLFCIVATAVMWAAALYFFFQNLSSWEGTPAESREKNRECILLDFFDDHDIWHFLSATALFFSFLVLLTLDDDLDVVRRDQIPVF
B3: SIDT1: N83Q (protein)
parent chain: MRGCLRLALLCALPWLLLAASPGHPAKSPRQPPAPRRDPFDAARGADFDHVYSGVVNLSTENIYSFNYTSQPDQVTAVRVYVNSSSENLNYPVLVVVRQQKEVLSWQVPLLFQGLYQRSYNYQEVSRTLCPSEATNETGPLQQLIFVDVASMAPLGAQYKLLVTKLKHFQLRTNVAFHFTASPSQPQYFLYKFPKDVDSVIIKVVSEMAYPCSVVSVQNIMCPVYDLDHNVEFNGVYQSMTKKAAITLQKKDFPGEQFFVVFVIKPEDYACGGSFFIQEKENQTWNLQRKKNLEVTIVPSIKESVYVKSSLFSVFIFLSFYLGCLLVGFVHYLRFQRKSIDGSFGSNDGSGNMVASHPIAASTPEGSNYGTIDESSSSPGRQMSSSDGGPPGQSDTDSSVEESDFDTMPDIESDKNIIRTKMFLYLSDLSRKDRRIVSKKYKIYFWNIITIAVFYALPVIQLVITYQTVVNVTGNQDICYYNFLCAHPLGVLSAFNNILSNLGHVLLGFLFLLIVLRRDILHRRALEAKDIFAVEYGIPKHFGLFYAMGIALMMEGVLSACYHVCPNYSNFQFDTSFMYMIAGLCMLKLYQTRHPDINASAYSAYASFAVVIMVTVLGVVFGKNDVWFWVIFSAIHVLASLALSTQIYYMGRFKIDLGIFRRAAMVFYTDCIQQCSRPLYMDRMVLLVVGNLVNWSFALFGLIYRPRDFASYMLGIFICNLLLYLAFYIIMKLRSSEKVLPVPLFCIVATAVMWAAALYFFFQNLSSWEGTPAESREKNRECILLDFFDDHDIWHFLSATALFFSFLVLLTLDDDLDVVRRDQIPVF
B4: SIDT1: N67Q (protein)
parent chain: MRGCLRLALLCALPWLLLAASPGHPAKSPRQPPAPRRDPFDAARGADFDHVYSGVVNLSTENIYSFNYTSQPDQVTAVRVYVNSSSENLNYPVLVVVRQQKEVLSWQVPLLFQGLYQRSYNYQEVSRTLCPSEATNETGPLQQLIFVDVASMAPLGAQYKLLVTKLKHFQLRTNVAFHFTASPSQPQYFLYKFPKDVDSVIIKVVSEMAYPCSVVSVQNIMCPVYDLDHNVEFNGVYQSMTKKAAITLQKKDFPGEQFFVVFVIKPEDYACGGSFFIQEKENQTWNLQRKKNLEVTIVPSIKESVYVKSSLFSVFIFLSFYLGCLLVGFVHYLRFQRKSIDGSFGSNDGSGNMVASHPIAASTPEGSNYGTIDESSSSPGRQMSSSDGGPPGQSDTDSSVEESDFDTMPDIESDKNIIRTKMFLYLSDLSRKDRRIVSKKYKIYFWNIITIAVFYALPVIQLVITYQTVVNVTGNQDICYYNFLCAHPLGVLSAFNNILSNLGHVLLGFLFLLIVLRRDILHRRALEAKDIFAVEYGIPKHFGLFYAMGIALMMEGVLSACYHVCPNYSNFQFDTSFMYMIAGLCMLKLYQTRHPDINASAYSAYASFAVVIMVTVLGVVFGKNDVWFWVIFSAIHVLASLALSTQIYYMGRFKIDLGIFRRAAMVFYTDCIQQCSRPLYMDRMVLLVVGNLVNWSFALFGLIYRPRDFASYMLGIFICNLLLYLAFYIIMKLRSSEKVLPVPLFCIVATAVMWAAALYFFFQNLSSWEGTPAESREKNRECILLDFFDDHDIWHFLSATALFFSFLVLLTLDDDLDVVRRDQIPVF
B5: SIDT1: N136Q (protein)
parent chain: MRGCLRLALLCALPWLLLAASPGHPAKSPRQPPAPRRDPFDAARGADFDHVYSGVVNLSTENIYSFNYTSQPDQVTAVRVYVNSSSENLNYPVLVVVRQQKEVLSWQVPLLFQGLYQRSYNYQEVSRTLCPSEATNETGPLQQLIFVDVASMAPLGAQYKLLVTKLKHFQLRTNVAFHFTASPSQPQYFLYKFPKDVDSVIIKVVSEMAYPCSVVSVQNIMCPVYDLDHNVEFNGVYQSMTKKAAITLQKKDFPGEQFFVVFVIKPEDYACGGSFFIQEKENQTWNLQRKKNLEVTIVPSIKESVYVKSSLFSVFIFLSFYLGCLLVGFVHYLRFQRKSIDGSFGSNDGSGNMVASHPIAASTPEGSNYGTIDESSSSPGRQMSSSDGGPPGQSDTDSSVEESDFDTMPDIESDKNIIRTKMFLYLSDLSRKDRRIVSKKYKIYFWNIITIAVFYALPVIQLVITYQTVVNVTGNQDICYYNFLCAHPLGVLSAFNNILSNLGHVLLGFLFLLIVLRRDILHRRALEAKDIFAVEYGIPKHFGLFYAMGIALMMEGVLSACYHVCPNYSNFQFDTSFMYMIAGLCMLKLYQTRHPDINASAYSAYASFAVVIMVTVLGVVFGKNDVWFWVIFSAIHVLASLALSTQIYYMGRFKIDLGIFRRAAMVFYTDCIQQCSRPLYMDRMVLLVVGNLVNWSFALFGLIYRPRDFASYMLGIFICNLLLYLAFYIIMKLRSSEKVLPVPLFCIVATAVMWAAALYFFFQNLSSWEGTPAESREKNRECILLDFFDDHDIWHFLSATALFFSFLVLLTLDDDLDVVRRDQIPVF
B6: SIDT1: N282Q (protein)
parent chain: MRGCLRLALLCALPWLLLAASPGHPAKSPRQPPAPRRDPFDAARGADFDHVYSGVVNLSTENIYSFNYTSQPDQVTAVRVYVNSSSENLNYPVLVVVRQQKEVLSWQVPLLFQGLYQRSYNYQEVSRTLCPSEATNETGPLQQLIFVDVASMAPLGAQYKLLVTKLKHFQLRTNVAFHFTASPSQPQYFLYKFPKDVDSVIIKVVSEMAYPCSVVSVQNIMCPVYDLDHNVEFNGVYQSMTKKAAITLQKKDFPGEQFFVVFVIKPEDYACGGSFFIQEKENQTWNLQRKKNLEVTIVPSIKESVYVKSSLFSVFIFLSFYLGCLLVGFVHYLRFQRKSIDGSFGSNDGSGNMVASHPIAASTPEGSNYGTIDESSSSPGRQMSSSDGGPPGQSDTDSSVEESDFDTMPDIESDKNIIRTKMFLYLSDLSRKDRRIVSKKYKIYFWNIITIAVFYALPVIQLVITYQTVVNVTGNQDICYYNFLCAHPLGVLSAFNNILSNLGHVLLGFLFLLIVLRRDILHRRALEAKDIFAVEYGIPKHFGLFYAMGIALMMEGVLSACYHVCPNYSNFQFDTSFMYMIAGLCMLKLYQTRHPDINASAYSAYASFAVVIMVTVLGVVFGKNDVWFWVIFSAIHVLASLALSTQIYYMGRFKIDLGIFRRAAMVFYTDCIQQCSRPLYMDRMVLLVVGNLVNWSFALFGLIYRPRDFASYMLGIFICNLLLYLAFYIIMKLRSSEKVLPVPLFCIVATAVMWAAALYFFFQNLSSWEGTPAESREKNRECILLDFFDDHDIWHFLSATALFFSFLVLLTLDDDLDVVRRDQIPVF
B7: SIDT1: kifunensine, pH 7.5 (protein)
parent chain: MRGCLRLALLCALPWLLLAASPGHPAKSPRQPPAPRRDPFDAARGADFDHVYSGVVNLSTENIYSFNYTSQPDQVTAVRVYVNSSSENLNYPVLVVVRQQKEVLSWQVPLLFQGLYQRSYNYQEVSRTLCPSEATNETGPLQQLIFVDVASMAPLGAQYKLLVTKLKHFQLRTNVAFHFTASPSQPQYFLYKFPKDVDSVIIKVVSEMAYPCSVVSVQNIMCPVYDLDHNVEFNGVYQSMTKKAAITLQKKDFPGEQFFVVFVIKPEDYACGGSFFIQEKENQTWNLQRKKNLEVTIVPSIKESVYVKSSLFSVFIFLSFYLGCLLVGFVHYLRFQRKSIDGSFGSNDGSGNMVASHPIAASTPEGSNYGTIDESSSSPGRQMSSSDGGPPGQSDTDSSVEESDFDTMPDIESDKNIIRTKMFLYLSDLSRKDRRIVSKKYKIYFWNIITIAVFYALPVIQLVITYQTVVNVTGNQDICYYNFLCAHPLGVLSAFNNILSNLGHVLLGFLFLLIVLRRDILHRRALEAKDIFAVEYGIPKHFGLFYAMGIALMMEGVLSACYHVCPNYSNFQFDTSFMYMIAGLCMLKLYQTRHPDINASAYSAYASFAVVIMVTVLGVVFGKNDVWFWVIFSAIHVLASLALSTQIYYMGRFKIDLGIFRRAAMVFYTDCIQQCSRPLYMDRMVLLVVGNLVNWSFALFGLIYRPRDFASYMLGIFICNLLLYLAFYIIMKLRSSEKVLPVPLFCIVATAVMWAAALYFFFQNLSSWEGTPAESREKNRECILLDFFDDHDIWHFLSATALFFSFLVLLTLDDDLDVVRRDQIPVF

Experiment: Western blot of cells and medium, HEK293F
Conditions: glycan lost; control: WT SIDT1ECD

Q: For B1, which expression_or_secretion is on record?
A: decreases

Q: With B2 as the protein, how does the expression_or_secretion read?
A: decreases

Q: Which expression_or_secretion does the source give for B3 here?
A: no change

Q: For B4, which expression_or_secretion is on record?
A: decreases

Q: Which expression_or_secretion does the source give for B5 here?
A: decreases

Q: With B6 as the protein, how does the expression_or_secretion read?
A: no change

Experiment: differential scanning fluorometry (Tycho)
Conditions: glycan changed form; control: SIDT1ECD expressed without kifunensine, same pH

Q: For B7, which “stability_or_folding, Tm” value is on record?
A: decreases, decrease of 4.7 vs 55.1 (pH 7.5), 60.5 (pH 5.5), 61.1 (pH 3.5)

From article PMC10850970, “Characterization of N-glycosylation and its functional role in SIDT1-Mediated RNA uptake”
